Data as given in patent US9073989B2, “Antibiotic comprising an antibody mimetic, its preparation methods and uses thereof” (PROTEIN DESIGN LAB, LTD, priority 2011, dated 2015).
Converted amounts (≈) assume the structure as drawn. “And” between values parts separate entries of the source, which are not always exact repeats. Equal entries are not always repeated. “Also recorded” adds a separate entry of the source. Where two headings read alike, the source gives them in different places.

What was measured:
[1] = test system: vancomycin-resistant Enterococcus faecalis (ATCC 700802); format: cell-based; conditions: MH medium
[2] = test system: multi-drug resistant Pseudomonas aeruginosa (isolated by West China Hospital, No. 13578); experiment: Minimum inhibitory concentration by agar dilution method; format: cell-based; conditions: for MIC in terms of molecular weight standard: Embodiment 3, converted from μg/ml; for MIC: MH medium
[3] = test system: methicillin-resistant Staphylococcus aureus (ATCC BAA-42); experiment: as above; format: cell-based
[4] = test system: Nesseria meningitidis (No. 29332); experiment: In vivo protection of mice infected by fatal dose of Nesseria meningitidis; conditions: 1.5 mg/kg intravenous 1 hour after intraperitoneal fatal dose; for survival rate in 8 days: 10 mice per group
Description: The mice were given an intraperitoneal injection of glucose solution of ferrous by 20 mg/kg, and 1 hour later an intraperitoneal injection of 0.5 ml of bacteria culture containing 1 share of Nesseria meningitidis cultrue solution (its CFU was 2.36×10^9/ml) and 1.5 share of 5% dry yeast solution. One hour later after being given intraperitoneal injection of fatal dose of the bacteria culture, the mice in experimental group were given an intravenous injection of the drugs and the mice in control group were given an intravenous injection of normal saline, all drugs were injected by 1.5 mg/kg), observation every 2 hours for 8 days, the death of mice as the positive results.

[5] = test system: Mycobacterium tuberculosis (the standard strains H37RV); experiment: In vivo protection of mice infected by Mycobacterium tuberculosis; parameters: species or system BalB/c mice; conditions: for weight of mice during experiment: during 5 weeks treatment; for lung by microscope (pathological section): 5 weeks treatment, magnification 200, FIG. 11
[6] = test system: Nesseria meningitidis (No. 29332); experiment: Minimum inhibitory concentration by agar dilution method; format: cell-based; conditions: Embodiment 4, FIG. 6A, blood-chocolate medium with Columbia blood agar base
[7] = test system: Nesseria meningitidis strain No. 29332; experiment: Inhibiting effect on growth of Nesseria meningitidis in liquid culture (growth curve, optical density); format: cell-based; conditions: 5 and 10 μg/ml, rabbit blood-chocolate medium, 37° C., hourly A595 nm, FIG. 4
Description: The bacteria was strain No. 29332 Nesseria meningitidis (No. 29332 of bacteria Preservation Center in China, i.e. Center of Medical Devices of National Institute for the Control of Pharmaceutical & biological Products, SDA), two microlitres (μl) of bacteria solution (10^5 CFU/ml) was added in 10 ml rabbit blood-chocolate medium containing 50 mg beef extract, 100 mg tryptone, 50 mg NaCl, 30 mg K2HPO4 and 0.5-0.8 ml off fiber rabbit blood. Five groups were prepared. The first group was added 0.3 M NaCl+50 mM boric acid buffer fluid (i.e. blank preservative fluid for the novel antibiotic, by the same volume with the novel antibiotic solution in the group 4 and 5) as control. Penicillin sodium was added in the second group by 5 μg/ml. The novel antibiotic PMC-AM1 was added in the third group by 5 μg/ml. The novel antibiotic PMC-AM2 was added in the forth group by 5 μg/ml. The novel antibiotic PMC-AM1 was added in the fifth group by 10 μg/ml.
Reactant liquid of the above five groups were respectively put into 100 ml conical flask, and cultured at 37° C. by 200 rpm 100 μl culture solution was sampled per hour and added onto 96-pore ELISA plate for measuring bacteria grown cloudiness by spectrophotometer (A595 nm) color comparison. The bacteria-growth curve was drawn up to compare the bacteriostasis efficacy of novel antibiosis.

[8] = Pseudomonas aeruginosa, Embodiment 3, agar dilution, 37° C. 18-24 hours, FIG. 5, read-out: MIC
[9] = Embodiment 4, FIG. 6C, BM medium
[10] = Embodiment 3, agar dilution, 37° C. 18-24 hours, FIG. 5
[11] = Embodiment 5, FIG. 7B, MH medium

CN[C@H](CC(C)C)C(=O)N[C@H]1C(=O)N[C@@H](CC(N)=O)C(=O)N[C@H]2C(=O)N[C@H]3C(=O)N[C@H](C(=O)N[C@H](C(=O)O)c4cc(O)cc(O)c4-c4cc3ccc4O)[C@H](O)c3ccc(c(Cl)c3)Oc3cc2cc(c3O[C@@H]2O[C@H](CO)[C@@H](O)[C@H](O)[C@H]2O[C@H]2C[C@](C)(N)[C@H](O)[C@H](C)O2)Oc2ccc(cc2Cl)[C@H]1O [vancomycin, reference compound]
MIC ([1]; Embodiment 4, FIG. 6B): 21.54 nmol

C[C@H]1COc2c(N3CCN(C)CC3)c(F)cc3c(=O)c(C(=O)O)cn1c23 [levofloxacin]
MIC in terms of molecular weight standard [2]: 43.2 nmol | MIC ([2]; Embodiment 4, FIG. 6D): 43.2 nmol | MIC [2, 8]: 8 µg/mL (≈ 22.1 µM)

Cc1onc(-c2ccccc2)c1C(=O)N[C@@H]1C(=O)N2[C@@H]1SC(C)(C)[C@@H]2C(=O)O [oxacillin, reference compound]
MIC [3, 9]: 14.1 nmol

gentamicin
MIC [2, 10]: greater than 512 μg/ml | MIC in terms of molecular weight standard [2]: greater than 890 nMol | MIC ([2]; Embodiment 4, FIG. 6D): > 889.4 nmol | survival rate in 8 days [4]: 50%

NNC(=O)c1ccncc1 [isoniazid, reference compound]
weight of mice during experiment [5]: rise

CC1(C)S[C@@H]2[C@H](NC(=O)[C@H](N)c3ccccc3)C(=O)N2[C@H]1C(=O)O [ampicillin, reference compound]
MIC [6]: 1.35 nmol | MIC ([1]; Embodiment 4, FIG. 6B): 10.78 nmol | MIC [3, 9]: 21.55 nmol

CC(C)(O/N=C(\C(=O)N[C@@H]1C(=O)N2C(C(=O)[O-])=C(C[n+]3ccccc3)CS[C@H]12)c1csc(N)n1)C(=O)O [ceftazidime]
MIC in terms of molecular weight standard [2]: 29.3 nmol | MIC ([2]; Embodiment 4, FIG. 6D): 29.3 nmol | MIC [2, 8]: 16 µg/mL (≈ 29.3 µM) | MIC [6]: 3.02 nmol

penicillin
death of mice (survival outcome in words) [4]: all died in two days

B1: PMC-AM1: Fusion of antibody mimetic AM1 (VHCDR1-VHFR2-VLCDR3, Seq ID No.2) to C-terminus of Colicin Ia; Seq ID No.6 (protein)
chain: SDPVRITNPGAESLGYDSDGHEIMAVDIYVNPPRVDVFHGTPPAWSSFGNKTIWGGNEWVDDSPTRSDIEKRDKEITAYKNTLSAQQKENENKRTEAGKRLSAAIAAREKDENTLKTLRAGNADAADITRQEFRLLQAELREYGFRTEIAGYDALRLHTESRMLFADADSLRISPREARSLIEQAEKRQKDAQNADKKAADMLAEYERRKGILDTRLSELEKNGGAALAVLDAQQARLLGQQTRNDRAISEARNKLSSVTESLNTARNALTRAEQQLTQQKNTPDGKTIVSPEKFPGRSSTNHSIVVSGDPRFAGTIKITTSAVIDNRANLNYLLSHSGLDYKRNILNDRNPVVTEDVEGDKKIYNAEVAEWDKLRQRLLDARNKITSAESAVNSARNNLSARTNEQKHANDALNALLKEKENIRNQLSGINQKIAEEKRKQDELKATKDAINFTTEFLKSVSEKYGAKAEQLAREMAGQAKGKKIRNVEEALKTYEKYRADINKKINAKDRAAIAAALESVKLSDISSNLNRFSRGLGYAGKFTSLADWITEFGKAVRTENWRPLFVKTETIIAGNAATALVALVFSILTGSALGIIGYGLLMAVTGALIDESLVEKANKFWGISYWLHWIKQRPGQGLWIGSQSTHVPRT
modifications: The amino acid sequence of antibiotic PMC-AM1
bacteria growth (bacteriostasis efficacy, growth curve) [7]: can only be restrained by PMC-AM1 | MIC [2, 10]: 8 µg/mL | MIC in terms of molecular weight standard [2]: 0.23 nmol | antibacterial effect stronger than ceftazidime, levofloxacin and gentamicin ([2]; Embodiment 3, ratio of molar MICs): 127 to 3800 times and 127-3800 times | MIC ([2]; Embodiment 4, FIG. 6D): 0.91 nmol | MIC ([2]; Embodiment 5, FIG. 7C): 0.23 nmol | MIC [6]: 0.11 nmol | MIC ([1]; Embodiment 4, FIG. 6B): 0.23 nmol | MIC ([1]; Embodiment 5, FIG. 7A): 0.23 nmol | MIC [3, 9]: 0.06 nmol | MIC [3, 11]: 0.06 nmol | survival rate in 8 days [4]: 90% | lung by microscope (pathological section) [5]: intact but had a little of cellular infiltration in parts | weight of mice during experiment [5]: rise | observation of the mice's lung (TB nodules, necrosis) ([5]; mouse, in vivo, ip): intact, and had no nodules and necrosis of tuberculosis; also recorded: no TB nodules and necrosis

B2: Colicin Ia (protein, UniProt P06716 1-626, looked up)
Colicin-Ia: MSDPVRITNPGAESLGYDSDGHEIMAVDIYVNPPRVDVFHGTPPAWSSFGNKTIWGGNEWVDDSPTRSDIEKRDKEITAYKNTLSAQQKENENKRTEAGKRLSAAIAAREKDENTLKTLRAGNADAADITRQEFRLLQAELREYGFRTEIAGYDALRLHTESRMLFADADSLRISPREARSLIEQAEKRQKDAQNADKKAADMLAEYERRKGILDTRLSELEKNGGAALAVLDAQQARLLGQQTRNDRAISEARNKLSSVTESLNTARNALTRAEQQLTQQKNTPDGKTIVSPEKFPGRSSTNHSIVVSGDPRFAGTIKITTSAVIDNRANLNYLLSHSGLDYKRNILNDRNPVVTEDVEGDKKIYNAEVAEWDKLRQRLLDARNKITSAESAVNSARNNLSARTNEQKHANDALNALLKEKENIRNQLSGINQKIAEEKRKQDELKATKDAINFTTEFLKSVSEKYGAKAEQLAREMAGQAKGKKIRNVEEALKTYEKYRADINKKINAKDRAAIAAALESVKLSDISSNLNRFSRGLGYAGKFTSLADWITEFGKAVRTENWRPLFVKTETIIAGNAATALVALVFSILTGSALGIIGYGLLMAVTGALIDESLVEKANKFWGI
notes: Wild-type bacterial toxin secreted by E. coli forming ion channels
MIC ([2]; Embodiment 5, FIG. 7C): 0.91 nmol | MIC ([1]; Embodiment 5, FIG. 7A): 0.91 nmol | MIC [3, 11]: 0.23 nmol | lung by microscope (pathological section) [5]: the injury was little slighter than the control mouse's | mice died before sacrifice (from the forth week) ([5]; mouse, in vivo): 1 mouse
